Source: patent US20240117030A1 (Pfizer, published 2024)

T1: recombinant human IL-4 (human, UniProt P05112 25-153)
T1 sequence (looked up): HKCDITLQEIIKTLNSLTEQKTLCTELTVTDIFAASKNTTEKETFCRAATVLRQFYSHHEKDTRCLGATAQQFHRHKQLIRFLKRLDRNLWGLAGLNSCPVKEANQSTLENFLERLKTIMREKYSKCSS

T2: IL-33 mm2 (human, UniProt O95760 112-270, limits assumed)
T2 sequence (looked up): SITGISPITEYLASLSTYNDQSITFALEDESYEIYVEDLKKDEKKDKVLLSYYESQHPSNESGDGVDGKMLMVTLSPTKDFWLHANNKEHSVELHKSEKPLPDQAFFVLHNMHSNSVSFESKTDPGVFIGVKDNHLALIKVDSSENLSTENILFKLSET


Experiments:
Test in all cases: cell-based or functional assay
[1] = target: T1, recombinant human IL-4
[2] = target: T1, recombinant human IL-4; remark: listed apart in the source
[3] = target: T2, IL-33 mm2
[4] = target: recombinant human IL-13 (human, UniProt P35225 35-146)
Chain of recombinant human IL-13 (P35225 35-146 limits assumed): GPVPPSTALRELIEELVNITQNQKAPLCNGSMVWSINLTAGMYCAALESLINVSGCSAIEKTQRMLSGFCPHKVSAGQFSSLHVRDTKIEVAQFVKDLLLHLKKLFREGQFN

[5] = target: T1, recombinant human IL-4; remark: listed apart in the source

Binder	IL-4 induced CD23 upregulation (IC50), parental IgG [1] [pM]	IC50 (median), IL-4 induced CD23 expression on human monocytes [2] [pM]	IL-33 mm2 Cys Activation of SEAP Reporter Cells, potency of cytokine neutralization [3] [pM]	IL-13 Induced CD23 Expression, potency of cytokine neutralization [4] [pM]	IL-4 Induced CD23 Expression, potency of cytokine neutralization [5] [pM]
IL4-1040 (antibody, human IgG1, kappa, V domains shown) VH: EVTLRESGPALVKPTQTLTLTCTFSGFSLSNFGEGLSWIRQPPGKGLEWLAHIYWDDDKRYNPSLKSRLTISKDTSRNQVVLTMTNMDPVDTATYYCARRETVFYWYFDVWGQGTTVTVSS VL: DIQMTQSPSSLSASVGDRVTITCRASQSVDEEGDSYMNWYQQKPGKAPKLLIYAASNLESGVPSRFSGSGSGTDFTLTISSLQPEDFATYYCQQSNKDPPTFGGGTKVEIKR	3.23	3.23	–	–	–
IL13433-0005 (other) heavy: EVTLRESGPALVKPTQTLTLTCTFSGFSLSNFGEGLSWIRQPPGKGLEWLAHIYWDDDKRYNPSLKSRLTISKDTSRNQVVLTMTNMDPVDTATYYCARRETVFYWYFDVWGQGTTVTVSSASTKGPSVFPEAPSSKSTSGGTAALGCLVKDYFPEPVTVSWNSGALTSGVHTFPAVLQSSGLYSLGSVVTVPSSSLGTQTYICNVNHKPSNTKVDKKVEPKSCDKTHTCPPCPAPEAAGAPSVFLFPPKPKDTLMISRTPEVTCVVVDVSHEDPEVKFNWYVDGVEVHNAKTKPREEQYNSTYRVVSVLTVLHQDWLNGKEYKCKVSNKALPAPIEKTISKAKGQPREPQVYTLPPCREEMTKNQVSLSCAVKGFYPSDIAVEWESNGQPENNYKTTPPVLDSDGSFFLVSKLTVDKSRWQQGNVFSCSVMHEALHNHYTQKSLSLSPGK chain 1: DIQMTQSPSSLSASVGDRVTITCKASQNINKHLDWYQQKPGKAPKLLIYFTNNLQTGVPSRFSGSGSGTDFTLTISSLQPEDFATYYCFQYNQGWTFGGGTKVEIKRTVAAPSVFIFPPSDEQLKSGTASVVCLLNNFYPREAKVQWKVDNALQSGNSQESVTEQDSKDSTYSLSSTLTLSKADYEKHKVYACEVTHQGLSSPVTKSFNRGECGGGGSEVQLVESGGGLVQPGGSLRLSCAASGFTFSSYAMSWVRQAPGKGLEWVASISSGDTTYYPDSVKGRFTISRDNAKNSLYLQMNSLRAEDTAVYYCARNEGYYFGLTLWGQGTLVTVSSASTKGPSVFPKAPSSKSTSGGTAALGCLVKDYFPEPVTVSWNSGALTSGVHTFPAVLQSSGLYSLSSSVTVPSSSLGTQTYICNVNHKPSNTKVDKKVEPKSCDKTHTCPPCPAPEAAGAPSVFLFPPKPKDTLMISRTPEVTCVVVDVSHEDPEVKFNWYVDGVEVHNAKTKPREEQYNSTYRVVSVLTVLHQDWLNGKEYKCKVSNKALPAPIEKTISKAKGQPREPQVCTLPPSREEMTKNQVSLWCLVKGFYPSDIAVEWESNGQPENNYKTTPPVLDSDGSFFLYSKLTVDKSRWQQGNVFSCSVMHEALHNHYTQKSLSLSPGK light 1: DIQMTQSPSSLSASVGDRVTITCKASQSVDEDGDSYMNWYQQKPGKAPKLLIYAASNLESGVPSRFSGSGSGTDFTLTISSLQPEDFATYYCQQSNEDPPTFGGGTKVEIKRTVAAPSVFIFPPSDEQLKSGTASVSCLLNNFYPREAKVQWKVDNALQSGNSQESVTEQDSKDSTYSLKSTLTLSKADYEKHKVYACEVTHQGLSSPVTKSFNRGEC light 2: DIQMTQSPSSLSASVGDRVTITCKASESVDHFGWSLVHWYQQKPGKAPKLLIYRASNLESGVPSRFSGSGSGTDFTLTISSLQPEDFATYYCQQSNEDPWTFGGGTKVEIKRTVAAPSVFIFPPSDEQLKSGTASVSCLLNNFYPREAKVQWKVDNALQSGNSQESVTEQDSKDSTYSLDSTLTLSKADYEKHKVYACEVTHQGLSSPVTKSFNRGEC chain 2: EVQLVESGGGLVQPGGSLRLSCAASGFTFSSYWMYWVRQAPGKGLEWVAAITPNAGEDYYPESVKGRFTISRDNAKNSLYLQMNSLRAEDTAVYYCARGHYYYTSYSLGYWGQGTLVTVSSASTKGPSVFPLAPSSKSTSGGTAALGCLVKDYFPEPVTVSWNSGALTSGVHTFPAVLQSSGLYSLSSVVTVPSSSLGTQTYICNVNHKPSNTKVDKKVEPKSC	–	–	45	12.5	3.2
IL13433-0607 (other) heavy: EVQLVESGGGLVQPGGSLRLSCAASGFTFSSYAMSWVRQAPGKGLEWVASISTGDTTYYPDSVKGRFTISRDNAKNSLYLQMNSLRAEDTAVYYCARNEGYYFGLTQWGRGTLVTVSSASTKGPSVFPKAPSSKSTSGGTAALGCLVKDYFPEPVTVSWNSGALTSGVHTFPAVLQSSGLYSLSSSVTVPSSSLGTQTYICNVNHKPSNTKVDKKVEPKSCDKTHTCPPCPAPEAAGAPSVFLFPPKPKDTLMISRTPEVTCVVVDVSHEDPEVKFNWYVDGVEVHNAKTKPREEQYNSTYRVVSVLTVLHQDWLNGKEYKCKVSNKALPAPIEKTISKAKGQPREPQVCTLPPSREEMTKNQVSLWCLVKGFYPSDIAVEWESNGQPENNYKTTPPVLDSDGSFFLYSKLTVDKSRWQQGNVFSCSVLHEALHSHYTQKSLSLSPGK chain 1: DIQMTQSPSSLSASVGDRVTITCRASQPISKHLDWYQQKPGKAPKLLIYFTNNLQTGVPSRFSGSGSGTDFTLTISSLQPEDFATYYCFQYNQGWTFGGGTKVEIKRTVAAPSVFIFPPSDEQLKSGTASVVCLLNNFYPREAKVQWKVDNALQSGNSQESVTEQDSKDSTYSLSSTLTLSKADYEKHKVYACEVTHQGLSSPVTKSFNRGECGGGGSEVTLRESGPALVKPTQTLTLTCTFSGFSLSNFGEGLSWIRQPPGKGLEWLAHIYWDDDKRYSTSLKTRLTISKDTSRNQVVLTMTNMDPVDTATYYCARRETVFYWYFDVWGQGTTVTVSSASTKGPSVFPEAPSSKSTSGGTAALGCLVKDYFPEPVTVSWNSGALTSGVHTFPAVLQSSGLYSLGSVVTVPSSSLGTQTYICNVNHKPSNTKVDKKVEPKSCDKTHTCPPCPAPEAAGAPSVFLFPPKPKDTLMISRTPEVTCVVVDVSHEDPEVKFNWYVDGVEVHNAKTKPREEQYNSTYRVVSVLTVLHQDWLNGKEYKCKVSNKALPAPIEKTISKAKGQPREPQVYTLPPCREEMTKNQVSLSCAVKGFYPSDIAVEWESNGQPENNYKTTPPVLDSDGSFFLVSKLTVDKSRWQQGNVFSCSVLHEALHSHYTQKSLSLSPGK light 1: DIQMTQSPSSLSASVGDRVTITCRASESVDHFGWSLVHWYQQKPGKAPKLLIYRADSLETGVPSRFSGSGSGTDFTLTISSLQPEDFATYYCQQSNEDPWTFGGGTKVEIKRTVAAPSVFIFPPSDEQLKSGTASVSCLLNNFYPREAKVQWKVDNALQSGNSQESVTEQDSKDSTYSLDSTLTLSKADYEKHKVYACEVTHQGLSSPVTKSFNRGEC light 2: DIQMTQSPSSLSASVGDRVTITCRASQSVDEEGDSYMNWYQQKPGKAPKLLIYAASNLESGVPSRFSGSGSGTDFTLTISSLQPEDFATYYCQQSHKDPPTFGGGTKVEIKRTVAAPSVFIFPPSDEQLKSGTASVSCLLNNFYPREAKVQWKVDNALQSGNSQESVTEQDSKDSTYSLKSTLTLSKADYEKHKVYACEVTHQGLSSPVTKSFNRGEC chain 2: EVQLVESGGGLVQPGGSLRLSCAASGFTFSSYWMYWVRQAPGKGLEWVAAITPNAGEDYYPESVKGRFTISRDNAKNSLYLQMNSLRAEDTAVYYCARGHYYYTSYSLGYWGQGTLVTVSSASTKGPSVFPLAPSSKSTSGGTAALGCLVKDYFPEPVTVSWNSGALTSGVHTFPAVLQSSGLYSLSSVVTVPSSSLGTQTYICNVNHKPSNTKVDKKVEPKSC	–	–	182	20.3	66.9
IL4-0002 (antibody, human IgG1, kappa) heavy: EVTLRESGPALVKPTQTLTLTCTFSGFSLSNFGEGLSWIRQPPGKGLEWLAHIYWDDDKRYNPSLKSRLTISKDTSRNQVVLTMTNMDPVDTATYYCARRETVFYWYFDVWGQGTTVTVSSASTKGPSVFPLAPSSKSTSGGTAALGCLVKDYFPEPVTVSWNSGALTSGVHTFPAVLQSSGLYSLSSVVTVPSSSLGTQTYICNVNHKPSNTKVDKKVEPKSCDKTHTCPPCPAPEAAGAPSVFLFPPKPKDTLMISRTPEVTCVVVDVSHEDPEVKFNWYVDGVEVHNAKTKPREEQYNSTYRVVSVLTVLHQDWLNGKEYKCKVSNKALPAPIEKTISKAKGQPREPQVYTLPPSREEMTKNQVSLTCLVKGFYPSDIAVEWESNGQPENNYKTTPPVLDSDGSFFLYSKLTVDKSRWQQGNVFSCSVMHEALHNHYTQKSLSLSPGK light: DIQMTQSPSSLSASVGDRVTITCKASQSVDEDGDSYMNWYQQKPGKAPKLLIYAASNLESGVPSRFSGSGSGTDFTLTISSLQPEDFATYYCQQSNEDPPTFGGGTKVEIKRTVAAPSVFIFPPSDEQLKSGTASVVCLLNNFYPREAKVQWKVDNALQSGNSQESVTEQDSKDSTYSLSSTLTLSKADYEKHKVYACEVTHQGLSSPVTKSFNRGEC	2.06	2.09	–	–	–
